Measured values reported in patent US20240342283A1 (SHANDONG BOAN BIOTECHNOLOGY, published 2024).

B1: RC005c (other)
CAR: EVQLVQSGAEVKKPGATVKISCKVSGYTFTDYEMHWVKQAPGKGLEWIGAIDPETGGTAYNQKFKGRATITADKSSSTAYMELSSLRSEDSAVYYCTPYYGYAMDYWGQGTLVTVSSGGGGSGGGGSGGGGSDIQLTQSPSFLSASVGDRVTITCKASQNVGTNVAWYQQKPGKAPKLLIYWASTRHTGVPSRFSGSGSGTEFTLTISSLQPEDFATYFCQQYSSYPLTFGQGTKLEIKTTTPAPRPPTPAPTIASQPLSLRPEACRPAAGGAVHTRGLDFACDIYIWAPLAGTCGVLLLSLVITLYCKRGRKKLLYIFKQPFMRPVQTTQEEDGCSCRFPEEEEGGCELRVKFSRSADAPAYKQGQNQLYNELNLGRREEYDVLDKRRGRDPEMGGKPRRKNPQEGLYNELQKDKMAEAYSEIGMKGERRRGKGHDGLYQGLSTATKDTYDALHMQALPPR
notes: Chimeric antigen receptor on electroporated Jurkat cells or primary T cells; also called RC005c (hu709 VH4VL2); hu709 VH4VL2 CAR
B2: R12 ROR1 CAR (other)
CAR: QEQKVESGGRLVTPGGSLTLSCKASGFDFSAYYMSWVRQAPGKGLEWIATIYPSSGKTYYATWVNGRFTISSDNAQNTVDLQMNSLTAADRATYFCARDSYADDGALFNIWGPGTLVTISSGGGGSGGGGSGGGGSELVLTQSPSVSAALGSPAKITCTLSSAHKTDTIDWYQQLQGEAPRYLMQVQSDGSYTKRPGVPDRFSGSSSGADRYLIIPSVQADDEADYYCGADYIGGYVFGGGTQLTVTGTTTPAPRPPTPAPTIASQPLSLRPEACRPAAGGAVHTRGLDFACDIYIWAPLAGTCGVLLLSLVITLYCKRGRKKLLYIFKQPFMRPVQTTQEEDGCSCRFPEEEEGGCELRVKFSRSADAPAYKQGQNQLYNELNLGRREEYDVLDKRRGRDPEMGGKPRRKNPQEGLYNELQKDKMAEAYSEIGMKGERRRGKGHDGLYQGLSTATKDTYDALHMQALPPR
notes: Benchmark chimeric antigen receptor on electroporated primary T cells; also called R12 CAR; Benchmark Control R12

What was measured:
[1] = biological target: T1, Receptor tyrosine kinase-like orphan receptor 1 (ROR1) on ROR1-positive cells (human, UniProt Q01973 30-937); test: cell-based or functional assay
[2] = biological target: T2, Biotinylated Human ROR1 Protein, His, Avitag (Acro biosystem) (human, UniProt Q01973 30-403, biotinylated (Avitag)); test: flow cytometry of CAR-electroporated primary T cells stained with Biotinylated Human ROR1 Protein, His, Avitag
T2 construct: Bought reagent; not shown: His tag and Avitag
Text: To screen for CAR activity, the above-obtained T cells were electroporated with PiggyBac plasmids (shown in FIG. 3) with the CAR cassette as well as PiggyBac Transposon mRNA. CAR expression in primary T cells was confirmed by flow cytometry using Biotinylated Human ROR1 Protein, His, Avitag (Acro biosystem) (FIG. 18A).

[3] = biological target: T1, Receptor tyrosine kinase-like orphan …; test: cell-based or functional assay; remark: listed apart in the source

T1 sequence (Q01973 30-937): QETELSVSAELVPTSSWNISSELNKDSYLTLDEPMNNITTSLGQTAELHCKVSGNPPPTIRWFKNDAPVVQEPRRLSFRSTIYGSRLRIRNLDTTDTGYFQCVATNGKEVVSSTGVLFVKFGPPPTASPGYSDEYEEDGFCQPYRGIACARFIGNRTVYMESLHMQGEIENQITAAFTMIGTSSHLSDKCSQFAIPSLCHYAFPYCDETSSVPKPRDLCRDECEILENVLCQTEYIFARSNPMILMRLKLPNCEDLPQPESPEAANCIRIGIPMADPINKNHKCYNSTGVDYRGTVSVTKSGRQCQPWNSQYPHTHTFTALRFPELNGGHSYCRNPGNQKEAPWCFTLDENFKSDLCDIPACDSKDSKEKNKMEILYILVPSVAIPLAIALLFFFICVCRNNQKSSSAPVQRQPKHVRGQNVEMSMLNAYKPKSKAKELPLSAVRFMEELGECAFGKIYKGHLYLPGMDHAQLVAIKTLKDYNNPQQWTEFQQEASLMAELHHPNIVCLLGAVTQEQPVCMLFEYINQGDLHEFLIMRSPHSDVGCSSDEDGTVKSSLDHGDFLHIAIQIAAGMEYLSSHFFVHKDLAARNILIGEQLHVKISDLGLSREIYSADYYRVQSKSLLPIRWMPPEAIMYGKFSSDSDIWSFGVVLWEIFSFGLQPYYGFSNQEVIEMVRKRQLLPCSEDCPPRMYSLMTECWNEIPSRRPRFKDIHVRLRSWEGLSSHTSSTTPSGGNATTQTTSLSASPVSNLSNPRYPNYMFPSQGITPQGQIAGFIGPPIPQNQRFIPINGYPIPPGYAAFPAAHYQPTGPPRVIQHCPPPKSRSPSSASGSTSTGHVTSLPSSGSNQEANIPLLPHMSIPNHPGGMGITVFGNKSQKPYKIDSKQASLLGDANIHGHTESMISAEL
T2 sequence (Q01973 30-403 limits assumed): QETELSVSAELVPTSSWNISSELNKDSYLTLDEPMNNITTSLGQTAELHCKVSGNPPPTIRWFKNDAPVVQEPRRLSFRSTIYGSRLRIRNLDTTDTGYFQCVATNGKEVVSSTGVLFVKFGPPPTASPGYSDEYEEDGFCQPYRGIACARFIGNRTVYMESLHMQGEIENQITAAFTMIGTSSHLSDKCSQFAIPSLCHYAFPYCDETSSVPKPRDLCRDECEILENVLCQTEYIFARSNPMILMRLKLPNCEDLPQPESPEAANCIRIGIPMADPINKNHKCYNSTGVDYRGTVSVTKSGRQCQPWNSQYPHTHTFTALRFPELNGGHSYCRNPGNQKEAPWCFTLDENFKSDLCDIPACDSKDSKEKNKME

IFN-gamma cytokine release (pg/mL), co-culture with MDA-MB-231, Effector to Target ratio 1:1 [1] | IFN-gamma cytokine release (pg/mL), co-culture with MDA-MB-231, Effector to Target ratio 3:1 [1] | CAR Positive rate [2] | Specific lysis (%) of MDA-MB-231, Effector to Target ratio 1:1 [3] | Specific lysis (%) of MDA-MB-231, Effector to Target ratio 3:1 [3] | Binder
14600 pg/mL | 36800 pg/mL | 28% | 10.6% | 32.6% | B1
20500 pg/mL | 40600 pg/mL | 30.7% | 12.6% | 28.9% | B2
